Values quoted from earlier work in PMC8654464.

Target: SARS-CoV-2 spike protein RBD (Severe acute respiratory syndrome coronavirus 2) (UniProt P0DTC2)

regdanvimab
Kd: 0.065 nM
